Reference: paper doi:10.1101/2020.09.02.280610

Molecular target: recombinant soluble canine IL-10 receptor alpha chain (extra-cytoplasmic domain of canine IL-10R1) (canine)
Assay: SPR

EC80 (binding equilibrium constant): 51.4 nM | RU at 31.2 ng/mL: 211 RU | RU at 125 ng/mL (plateau): 1720 RU
Substance: recombinant canine IL-10 (from UniProt P48411 20-181) (ligand)
